The values below are quoted from earlier work in patent US6303637A, “Heterocyclic potassium channel inhibitors” (Merck & Co., Inc., priority 1999, dated 2001).

The target of the data set is T1, Kv 1.3 channels (Homo sapiens, UniProt P22001).
T1 construct: expressed in transfected cells; host or cells: CHO cells
Conditions: margatoxin used at saturating concentration to establish the efflux window; read-out: IC50 (blocker of Kv 1.3 channels).

pIC50: −log10 of the molar value.

T1 sequence (P22001 whole entry): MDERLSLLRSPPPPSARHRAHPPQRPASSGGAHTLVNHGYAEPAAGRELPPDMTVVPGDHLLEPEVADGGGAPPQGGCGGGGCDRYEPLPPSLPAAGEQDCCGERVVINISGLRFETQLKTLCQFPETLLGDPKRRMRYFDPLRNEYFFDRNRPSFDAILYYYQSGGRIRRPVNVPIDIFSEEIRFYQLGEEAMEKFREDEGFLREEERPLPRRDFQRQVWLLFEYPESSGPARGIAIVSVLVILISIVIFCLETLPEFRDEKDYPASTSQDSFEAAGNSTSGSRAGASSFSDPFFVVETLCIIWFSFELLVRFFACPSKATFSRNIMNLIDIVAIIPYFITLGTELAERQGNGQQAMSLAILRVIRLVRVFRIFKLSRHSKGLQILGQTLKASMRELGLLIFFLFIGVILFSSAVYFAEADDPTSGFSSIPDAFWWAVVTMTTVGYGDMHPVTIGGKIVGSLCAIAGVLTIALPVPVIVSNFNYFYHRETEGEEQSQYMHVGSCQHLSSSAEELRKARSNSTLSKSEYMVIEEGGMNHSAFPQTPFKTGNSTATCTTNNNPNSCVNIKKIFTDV

As usually defined, the pIC50 is the negative decadic logarithm of the IC50, by convention in mol/L. As for “margatoxin (TIINVKCTSPKQCLPPCKAQFGQSAGAKCMNGKCKCYPH; UniProt P40755 1-39, looked up)”, the pIC50 was 10.00.
